Experimental data: publication PMC10500460

How the values were obtained:
PTPN13 = PTPN13 (UniProt Q12923); experiment: biotin-peptide pull-down from lysate, Western blot; conditions: reference: unphosphorylated E7 13-28 peptide; sites T19,T20
pRb = pRb (UniProt P06400); experiment: biotin-peptide pull-down from lysate, Western blot; conditions: reference: unphosphorylated E7 13-28 peptide; sites T19,T20
PARD3 = PARD3 (UniProt Q8TEW0); experiment: biotin-peptide pull-down from lysate, Western blot; conditions: reference: unphosphorylated E7 13-28 peptide; sites T19,T20
AP2-μ2 (APμ2-HA) = AP2-μ2 (APμ2-HA) (UniProt P84092); experiment: biotin-peptide pull-down from lysate, Western blot; conditions: reference: unphosphorylated E7 13-28 peptide; sites T19,T20
IQGAP1 = IQGAP1 (UniProt P46940); experiment: GST pull-down after in vitro phosphorylation; conditions: reference: GST-E7 not kinase-treated; sites T5,T7,T19,T20
PTPN14 = PTPN14 (UniProt Q15678); experiment: GST pull-down after in vitro phosphorylation; conditions: reference: GST-E7 not kinase-treated; sites T5,T7,T19,T20

Substance: HPV16 E7 13-28 (from UniProt P03129) pT19/pT20 E7 13-28 peptide
- binding against the reference (PTPN13): gained
- binding against the reference (pRb): stronger
- binding against the reference (PARD3): gained
- binding against the reference (AP2-μ2 (APμ2-HA)): stronger

Substance: HPV16 E7 (from UniProt P03129) GST-E7 phosphorylated with CKI and GSK3
- binding against the reference (IQGAP1): stronger
- binding against the reference (PTPN14): same
